Reference: paper PMC3666556
Like-named read-outs stand apart in the source and are kept apart here. Each block holds one substance with its values, some of them ahead of it.

Key:
Test in all cases: cross-linking
G129C-apoA-I (human) [1] = molecular target: G129C-apoA-I (human)
G129C-apoA-I (human) [2] = molecular target: G129C-apoA-I (human); remark: listed apart in the source
K118C-apoA-I (human) [3] = molecular target: K118C-apoA-I (human) (UniProt P02647)
K118C-apoA-I (human) [4] = molecular target: K118C-apoA-I (human) (UniProt P02647); remark: listed apart in the source
K140C-apoA-I (human) [5] = molecular target: K140C-apoA-I (human)
K140C-apoA-I (human) [6] = molecular target: K140C-apoA-I (human); remark: listed apart in the source

percent homodimer (G129C-apoA-I (human) [1]): 38% | percent homodimer (G129C-apoA-I (human) [2]): 22%
Substance: G129C-apoA-I (natural protein)

percent homodimer (K118C-apoA-I (human) [3]): 17% | percent homodimer (K118C-apoA-I (human) [4]): 4%
Substance: K118C-apoA-I (from UniProt P02647 19-267) (natural protein)

percent homodimer (K140C-apoA-I (human) [5]): 65% | percent homodimer (K140C-apoA-I (human) [6]): 41%
Substance: K140C-apoA-I (natural protein)
